In article PMC12376620, “A Novel OsMPK6‐OsMADS47‐PPKL1/3 Module Controls Grain Shape and Yield in Rice”:

B1: GW8-P2 (dsDNA)
DNA 1: GTAACTGACTACCCCCAGTTCCTGCCCTCTTGGGCCTTGGTATTGTTGCTCCAAG
DNA 2: CTTGGAGCAACAATACCAAGGCCCAAGAGGGCAGGAACTGGGGGTAGTCAGTTAC
B2: GS3-P1 (dsDNA)
DNA 1: GCTGCACAACCCGCGATGCCGTCGGCCGGATTTGGGAGGTGGAGCGTCGCCGCCCTCC
DNA 2: GGAGGGCGGCGACGCTCCACCTCCCAAATCCGGCCGACGGCATCGCGGGTTGTGCAGC
B3: GS3-P2 (dsDNA)
DNA 1: CTCTCCCTTCCATCATTACTTGCCCAAAAACGGCAATCCCCTCCCCTCCATCTCCATGTG
DNA 2: CACATGGAGATGGAGGGGAGGGGATTGCCGTTTTTGGGCAAGTAATGATGGAAGGGAGAG
B4: GW8-P1 (dsDNA)
DNA 1: CTTATAGTCCAACAATTTGAGAGCAATTAATGGTCAAAAATTAAATGAAAAATAGAAATTC
DNA 2: GAATTTCTATTTTTCATTTAATTTTTGACCATTAATTGCTCTCAAATTGTTGGACTATAAG
B5: GS3-P5 (dsDNA)
DNA 1: CTTTTCTAAACGATATTCTTCATGAACCAAAGGAGGGAAGCTCATTCCGAAAATTTTTCC
DNA 2: GGAAAAATTTTCGGAATGAGCTTCCCTCCTTTGGTTCATGAAGAATATCGTTTAGAAAAG
B6: GW8-P3 (dsDNA)
DNA 1: CTACTTTCCTTATTCCACTAGAAATCATATATACCTTTCTCACTCTACATAATC
DNA 2: GATTATGTAGAGTGAGAAAGGTATATATGATTTCTAGTGGAATAAGGAAAGTAG
B7: GS3-P3 (dsDNA)
DNA 1: GCCACCCTCCCTACGACGTAGCCAGATATGGGTGGAGAGGTAAGCGCCGCCGCCGCTGC
DNA 2: GCAGCGGCGGCGGCGCTTACCTCTCCACCCATATCTGGCTACGTCGTAGGGAGGGTGGC
B8: GS3-P4 (dsDNA)
DNA 1: CCACCGTCCCCCCTTCCCCCTCCAACCAGATCTGGGAGGAAGGGAGGGAGGGAGGGGAG
DNA 2: CTCCCCTCCCTCCCTCCCTTCCTCCCAGATCTGGTTGGAGGGGGAAGGGGGGACGGTGG

What follows are binders tested against MBP-OsMADS47 (Oryza sativa (cv. Nipponbare, NIP?), UniProt Q5K4R0 1-250) (assay: EMSA; EMSA buffer not stated (performed as described previously, ref 61); unlabeled competitors at 10x, 100x, 1000x). Details: protein: recombinant; tags: MBP (N-terminal, pMAL); chain copies: 2; label: biotin 3'-end; blunt.
Sequence of MBP-OsMADS47 (Q5K4R0 whole entry): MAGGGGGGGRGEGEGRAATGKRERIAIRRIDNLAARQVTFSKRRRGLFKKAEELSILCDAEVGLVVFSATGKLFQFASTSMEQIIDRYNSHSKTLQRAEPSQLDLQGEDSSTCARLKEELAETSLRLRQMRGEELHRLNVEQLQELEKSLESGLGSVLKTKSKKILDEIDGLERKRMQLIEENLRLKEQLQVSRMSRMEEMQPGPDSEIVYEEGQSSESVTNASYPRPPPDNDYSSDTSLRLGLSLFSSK

Binding result, binds:
B1, B2, B3, B4, B5, B6, B7, B8
